Values quoted from earlier work in article PMC8359934.

Target: sNUCB1 (Homo sapiens) (UniProt Q02818)
Assay: SEC-MALS

In the case of sNUCB1 (from UniProt Q02818), the Kd is listed as 260 nM.
